Source: patent CN109666070A (UNIV TSINGHUA, dated 2019)

Experiments:
生物素标记的RBD融合蛋白 [1] = target: T1, 生物素标记的RBD融合蛋白 (MERS-CoV, UniProt K9N5Q8 367-606); assay: affinity measurement with biotin-labelled RBD fusion protein; method not stated
生物素标记的RBD融合蛋白 [2] = target: T1, 生物素标记的RBD融合蛋白; assay: as above; remark: listed apart in the source

B1: 单克隆抗体MERS-4 (antibody, V domains shown)
VH: EVQLVESGGGLVQPGRSLRLSCAASGFTFSNYAMYWVRQAPGKGLEWVALISYDISTDYYADSVKGRFTISRDNSKNTIYLQMNNLRTEDTALYYCAGNDYWGQGTLVTVSS
VL: QSVLTQSPSASGTPGQRVTISCSGSSSNIGNNYVYWYQQLPGTAPKLLIYWNDQRPSGVPDRFSGSKSGTSASLAISGLRSEDEADYYCAAWDDSLSGAVFGGGTQLTVLG
fold of Kd against that of MERS-4V2 (生物素标记的RBD融合蛋白 [1]): 1.71 fold
Ka (生物素标记的RBD融合蛋白 [2]): 8e+08 M⁻¹
Kd (生物素标记的RBD融合蛋白 [2]): 1.25 nM
koff (生物素标记的RBD融合蛋白 [2]): 0.00101 s⁻¹
kon (生物素标记的RBD融合蛋白 [2]): 805000 M⁻¹ s⁻¹
